Assay results reported in paper PMC9751120 (2022).
Read-outs that look alike come from different tables or passages of the source. Blank lines part the entries; values can stand above or below the binder they belong to.

How the values were obtained:
Test in all cases: FP
[1] = molecular target: T1, purified full-length TAp63α (human)
T1 chain: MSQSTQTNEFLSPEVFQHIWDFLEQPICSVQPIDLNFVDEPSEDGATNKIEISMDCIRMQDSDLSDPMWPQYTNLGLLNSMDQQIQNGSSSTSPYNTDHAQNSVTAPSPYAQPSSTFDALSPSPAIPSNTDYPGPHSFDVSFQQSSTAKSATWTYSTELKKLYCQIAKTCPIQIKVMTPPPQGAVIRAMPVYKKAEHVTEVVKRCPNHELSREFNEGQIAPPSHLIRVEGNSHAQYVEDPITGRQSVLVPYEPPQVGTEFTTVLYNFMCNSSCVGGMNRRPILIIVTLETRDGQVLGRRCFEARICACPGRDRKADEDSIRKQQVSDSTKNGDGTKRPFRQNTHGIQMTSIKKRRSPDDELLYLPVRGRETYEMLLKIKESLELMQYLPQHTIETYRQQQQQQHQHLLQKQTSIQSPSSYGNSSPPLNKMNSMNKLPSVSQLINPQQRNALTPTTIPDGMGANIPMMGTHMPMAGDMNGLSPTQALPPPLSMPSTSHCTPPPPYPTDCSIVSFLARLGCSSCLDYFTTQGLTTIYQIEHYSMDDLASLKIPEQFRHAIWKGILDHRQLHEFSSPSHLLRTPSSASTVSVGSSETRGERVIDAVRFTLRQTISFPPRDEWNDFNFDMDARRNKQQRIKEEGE

[2] = molecular target: T2, purified full-length ΔNp63α (human, UniProt Q9H3D4-2 1-586)
T2 chain: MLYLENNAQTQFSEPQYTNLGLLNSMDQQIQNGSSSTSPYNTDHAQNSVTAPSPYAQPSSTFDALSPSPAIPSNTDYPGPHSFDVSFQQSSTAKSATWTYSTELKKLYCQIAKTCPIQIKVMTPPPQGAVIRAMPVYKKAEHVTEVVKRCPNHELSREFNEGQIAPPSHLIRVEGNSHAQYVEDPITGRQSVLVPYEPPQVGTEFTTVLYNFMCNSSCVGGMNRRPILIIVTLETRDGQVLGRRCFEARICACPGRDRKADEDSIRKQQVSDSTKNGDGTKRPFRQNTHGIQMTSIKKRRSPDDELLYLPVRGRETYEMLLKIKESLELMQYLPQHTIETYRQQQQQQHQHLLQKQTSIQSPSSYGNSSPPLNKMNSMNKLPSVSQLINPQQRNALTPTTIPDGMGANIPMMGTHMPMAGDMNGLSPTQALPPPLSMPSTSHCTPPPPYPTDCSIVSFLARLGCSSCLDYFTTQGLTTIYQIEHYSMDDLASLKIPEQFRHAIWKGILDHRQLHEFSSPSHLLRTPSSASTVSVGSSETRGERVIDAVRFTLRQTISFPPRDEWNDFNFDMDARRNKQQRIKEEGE

[3] = molecular target: T1, purified full-length TAp63α
[4] = molecular target: T2, purified full-length ΔNp63α
[5] = molecular target: T1, purified full-length TAp63α
[6] = molecular target: T2, purified full-length ΔNp63α

Kd [1]: 734 nM | Kd [2]: 202 nM
B1: DARPin C14, Alexa 488 labeled (designed binder)
chain: GSDLGKKLLEAAQIGQLDEVRILMANGADVNASDTDGLTPLHLAAASGHLEIVEVLLKTGADVNATDKWGDTPLHLAASQGHLEIVEVLLKAGADVNATDFTGNTPLHLAAYIGHLEIVEVLLKHGADVNAQDKFGKTPFDLAIDNGNEDIAEVLQKAAGGC
modifications: Alexa Fluor 488 C5 maleimide on the introduced C-terminal cysteine

Kd [3]: 296 nM | Kd [4]: 67.9 nM
B2: DARPin A5, Alexa 488 labeled (designed binder)
chain: GSDLGKKLLEAARAGQDDEVRILMANGADVNAQDQYGWTPLHLAAARGHLEIVEVLLKTGADVNAVDKHGNTPLPLAASVGHLEIVEVLLKAGADVNAQDQFGRTPLHLAAMWGHLEIVEVLLKHGADVNAQDKFGKTAFDISIDNGNEDIVEVLQKAAGGC
modifications: Alexa Fluor 488 C5 maleimide on the introduced C-terminal cysteine

Kd [5]: 6160 nM | Kd [6]: 95.6 nM
B3: DARPin 8F1, Alexa 488 labeled (designed binder)
chain: GSDLGKKLLEAARAGQDDEVRILMANGADVNAADWLGYTPLHLAAWYGHLEIVEVLLKTGADVNARDAYGITPLHLAAYYGHLEIVEVLLKHGADVNAQDKFGKTPFDLAIDNGNEDIAEVLQKAAGGC
modifications: Alexa Fluor 488 C5 maleimide on the introduced C-terminal cysteine
